T1: PUF4 RNA-binding domain (Saccharomyces cerevisiae, UniProt P25339 537-888)
T1 sequence: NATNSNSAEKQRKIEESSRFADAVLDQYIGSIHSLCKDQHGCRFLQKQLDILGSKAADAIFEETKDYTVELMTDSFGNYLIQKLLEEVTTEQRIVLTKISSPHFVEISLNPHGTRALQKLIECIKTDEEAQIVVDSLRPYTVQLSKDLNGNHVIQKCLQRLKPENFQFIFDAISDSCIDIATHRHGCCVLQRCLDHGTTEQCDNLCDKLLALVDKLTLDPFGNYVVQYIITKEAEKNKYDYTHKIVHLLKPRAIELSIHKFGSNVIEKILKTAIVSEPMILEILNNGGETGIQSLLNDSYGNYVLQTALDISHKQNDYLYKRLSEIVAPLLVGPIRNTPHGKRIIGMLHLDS


These binders were tested against T1, PUF4 RNA-binding domain (assay: Mg; RNA-MaP; 20 mM Na-HEPES pH 7.4, 30 mM KOAc, 0.75 mM MgCl2, 0.1% Tween-20, 5% glycerol, 0.1 mg/mL BSA, 2 mM DTT; 25 C; 0.0125-409.6 nM protein). Conditions: tags: N-His6-TEV cleaved; C-SNAP kept, Cy3B-labelled; label: tethered on chip by stalled RNA polymerase.

Binder	Kd
UCUCUUUGUACUCUUUAUUAUCUCUU (ssRNA) [Ie_S1_P5E.1_K5.1_C5.1_H5.1_[+4CTCT]_A5.1_F5.1_T5.1]	13.1 nM
UCUCUUUGUAUCCUUAUUAUCUCUU (ssRNA) [Ie_S1_P5E.1_K5.1_C5.1_H5.1_[+4TCC]_A5.1_F5.1_T5.1]	11 nM
UCUCUUUUUCCGUAUUAUUAUCUCUU (ssRNA) [Ie_S1_P5E.1_K5.1_C5.1_H5.1_[+1TTCC]_A5.1_F5.1_T5.1]	> 2300 nM
UCUCUUUGUUUCCAUUAUUAUCUCUU (ssRNA) [Ie_S1_P5E.1_K5.1_C5.1_H5.1_[+3TTCC]_A5.1_F5.1_T5.1]	126 nM
UCUCUUUCCCUGUAUUAUUAUCUCUU (ssRNA) [Ie_S1_P5E.1_K5.1_C5.1_H5.1_[+1CCCT]_A5.1_F5.1_T5.1]	5.88 nM
UCUCUUUUUUGUAUUAUUAUCUCUU (ssRNA) [Ie_S1_P5E.1_K5.1_C5.1_H5.1_[+1TTT]_A5.1_F5.1_T5.1]	6.28 nM
UCUCUUUCCUGUAUUAUUAUCUCUU (ssRNA) [Ie_S1_P5E.1_K5.1_C5.1_H5.1_[+1CCT]_A5.1_F5.1_T5.1]	7.97 nM
UCUCUUUGUUUUAUUAUUAUCUCUU (ssRNA) [Ie_S1_P5E.1_K5.1_C5.1_H5.1_[+3TTT]_A5.1_F5.1_T5.1]	28.2 nM
UCUCUUUGUACCUCUUUAUUAUCUCUU (ssRNA) [Ie_S1_P5E.1_K5.1_C5.1_H5.1_[+4CCTCT]_A5.1_F5.1_T5.1]	35.4 nM
UCUCUUUCUCUCGUAUUAUUAUCUCUU (ssRNA) [Ie_S1_P5E.1_K5.1_C5.1_H5.1_[+1CTCTC]_A5.1_F5.1_T5.1]	1240 nM
UCUCUUUCUCUGUAUUAUUAUCUCUU (ssRNA) [Ie_S1_P5E.1_K5.1_C5.1_H5.1_[+1CTCT]_A5.1_F5.1_T5.1]	7.73 nM
UCUCUUUUCUCGUAUUAUUAUCUCUU (ssRNA) [Ie_S1_P5E.1_K5.1_C5.1_H5.1_[+1TCTC]_A5.1_F5.1_T5.1]	1230 nM
UCUCUUUCCUCUGUAUUAUUAUCUCUU (ssRNA) [Ie_S1_P5E.1_K5.1_C5.1_H5.1_[+1CCTCT]_A5.1_F5.1_T5.1]	4.35 nM
UCUCUUUGUUCUCUAUUAUUAUCUCUU (ssRNA) [Ie_S1_P5E.1_K5.1_C5.1_H5.1_[+3TCTCT]_A5.1_F5.1_T5.1]	85.1 nM
UCUCUUUGUCCUCUAUUAUUAUCUCUU (ssRNA) [Ie_S1_P5E.1_K5.1_C5.1_H5.1_[+3CCTCT]_A5.1_F5.1_T5.1]	397 nM
UCUCUUUCCUCGUAUUAUUAUCUCUU (ssRNA) [Ie_S1_P5E.1_K5.1_C5.1_H5.1_[+1CCTC]_A5.1_F5.1_T5.1]	1350 nM
UCUCUUUGUUCUCAUUAUUAUCUCUU (ssRNA) [Ie_S1_P5E.1_K5.1_C5.1_H5.1_[+3TCTC]_A5.1_F5.1_T5.1]	456 nM
UCUCUUUCCCUUGUAUUAUUAUCUCUU (ssRNA) [Ie_S1_P5E.1_K5.1_C5.1_H5.1_[+1CCCTT]_A5.1_F5.1_T5.1]	5.34 nM
UCUCUUUGUCCCUAUUAUUAUCUCUU (ssRNA) [Ie_S1_P5E.1_K5.1_C5.1_H5.1_[+3CCCT]_A5.1_F5.1_T5.1]	1100 nM
UCUCUUUGCUUAUUAUUAUCUCUU (ssRNA) [Ie_S1_P5E.1_K5.1_C5.1_H5.1_[+2CT]_A5.1_F5.1_T5.1]	2090 nM

Binder	Kd
UCUCUUUGUUAUUAUUAUCUCUU (ssRNA) [Ie_S1_P5E.1_K5.1_C5.1_H5.1_[+2T]_A5.1_F5.1_T5.1]	64.9 nM
UCUCUUUGUCUAUUAUUAUCUCUU (ssRNA) [Ie_S1_P5E.1_K5.1_C5.1_H5.1_[+2TC]_A5.1_F5.1_T5.1]	18.6 nM
UCUCUUUGCUCUUAUUAUUAUCUCUU (ssRNA) [Ie_S1_P5E.1_K5.1_C5.1_H5.1_[+2CTCT]_A5.1_F5.1_T5.1]	> 2300 nM
UCUCUUUGUAUUUCUAUUAUCUCUU (ssRNA) [Ie_S1_P5E.1_K5.1_C5.1_H5.1_A5.1_[+5TTC]_F5.1_T5.1]	6.57 nM
UCUCUUUGUCUCUUAUUAUUAUCUCUU (ssRNA) [Ie_S1_P5E.1_K5.1_C5.1_H5.1_[+2TCTCT]_A5.1_F5.1_T5.1]	332 nM
UCUCUUUCUUGUAUUAUUAUCUCUU (ssRNA) [Ie_S1_P5E.1_K5.1_C5.1_H5.1_[+1CTT]_A5.1_F5.1_T5.1]	4.33 nM
UCUCUUUGUAUUUUUAUUAUCUCUU (ssRNA) [Ie_S1_P5E.1_K5.1_C5.1_H5.1_A5.1_[+6TTT]_F5.1_T5.1]	4.32 nM
UCUCUUUGUAUCUCUCUAUUAUCUCUU (ssRNA) [Ie_S1_P5E.1_K5.1_C5.1_H5.1_A5.1_[+5CTCTC]_F5.1_T5.1]	36 nM
UCUCUUUGUUCAUUAUUAUCUCUU (ssRNA) [Ie_S1_P5E.1_K5.1_C5.1_H5.1_[+3TC]_A5.1_F5.1_T5.1]	10.9 nM
UCUCUUUGUCUCUAUUAUUAUCUCUU (ssRNA) [Ie_S1_P5E.1_K5.1_C5.1_H5.1_[+2TCTC]_A5.1_F5.1_T5.1]	405 nM
UCUCUUUGUUCUAUUAUUAUCUCUU (ssRNA) [Ie_S1_P5E.1_K5.1_C5.1_H5.1_[+3TCT]_A5.1_F5.1_T5.1]	32.9 nM
UCUCUUUGCUCUAUUAUUAUCUCUU (ssRNA) [Ie_S1_P5E.1_K5.1_C5.1_H5.1_[+2CTC]_A5.1_F5.1_T5.1]	> 2300 nM
UCUCUUUGUCAUUAUUAUCUCUU (ssRNA) [Ie_S1_P5E.1_K5.1_C5.1_H5.1_[+3C]_A5.1_F5.1_T5.1]	99.4 nM
UCUCUUUUCUCUGUAUUAUUAUCUCUU (ssRNA) [Ie_S1_P5E.1_K5.1_C5.1_H5.1_[+1TCTCT]_A5.1_F5.1_T5.1]	7.43 nM
UCUCUUUGUAUUCCUUUAUUAUCUCUU (ssRNA) [Ie_S1_P5E.1_K5.1_C5.1_H5.1_[+4TTCCT]_A5.1_F5.1_T5.1]	48.5 nM
UCUCUUUGUCCCUUAUUAUUAUCUCUU (ssRNA) [Ie_S1_P5E.1_K5.1_C5.1_H5.1_[+3CCCTT]_A5.1_F5.1_T5.1]	884 nM
UCUCUUUGUUUCCUAUUAUUAUCUCUU (ssRNA) [Ie_S1_P5E.1_K5.1_C5.1_H5.1_[+3TTCCT]_A5.1_F5.1_T5.1]	139 nM
UCUCUUUGUCUUAUUAUUAUCUCUU (ssRNA) [Ie_S1_P5E.1_K5.1_C5.1_H5.1_[+3CTT]_A5.1_F5.1_T5.1]	41.9 nM
UCUCUUUGUCCCAUUAUUAUCUCUU (ssRNA) [Ie_S1_P5E.1_K5.1_C5.1_H5.1_[+3CCC]_A5.1_F5.1_T5.1]	66.2 nM
UCUCUUUGCUUUAUUAUUAUCUCUU (ssRNA) [Ie_S1_P5E.1_K5.1_C5.1_H5.1_[+2CTT]_A5.1_F5.1_T5.1]	1920 nM

Binder	Kd
UCUCUUUGUCCUCAUUAUUAUCUCUU (ssRNA) [Ie_S1_P5E.1_K5.1_C5.1_H5.1_[+3CCTC]_A5.1_F5.1_T5.1]	738 nM
UCUCUUUGUACCCUUUUAUUAUCUCUU (ssRNA) [Ie_S1_P5E.1_K5.1_C5.1_H5.1_[+4CCCTT]_A5.1_F5.1_T5.1]	42.3 nM
UCUCUUUGUUUCAUUAUUAUCUCUU (ssRNA) [Ie_S1_P5E.1_K5.1_C5.1_H5.1_[+3TTC]_A5.1_F5.1_T5.1]	22.2 nM
UCUCUUUCUCGUAUUAUUAUCUCUU (ssRNA) [Ie_S1_P5E.1_K5.1_C5.1_H5.1_[+1CTC]_A5.1_F5.1_T5.1]	1250 nM
UCUCUUUUCUGUAUUAUUAUCUCUU (ssRNA) [Ie_S1_P5E.1_K5.1_C5.1_H5.1_[+1TCT]_A5.1_F5.1_T5.1]	4.9 nM
UCUCUUUGUACUUUUAUUAUCUCUU (ssRNA) [Ie_S1_P5E.1_K5.1_C5.1_H5.1_[+4CTT]_A5.1_F5.1_T5.1]	4.31 nM
UCUCUUUUUCGUAUUAUUAUCUCUU (ssRNA) [Ie_S1_P5E.1_K5.1_C5.1_H5.1_[+1TTC]_A5.1_F5.1_T5.1]	1620 nM
UCUCUUUGUUUAUUAUUAUCUCUU (ssRNA) [Ie_S1_P5E.1_K5.1_C5.1_H5.1_[+2TT]_A5.1_F5.1_T5.1]	8.58 nM
UCUCUUUGUACCUUUAUUAUCUCUU (ssRNA) [Ie_S1_P5E.1_K5.1_C5.1_H5.1_[+4CCT]_A5.1_F5.1_T5.1]	6.7 nM
UCUCUUUGUCUCAUUAUUAUCUCUU (ssRNA) [Ie_S1_P5E.1_K5.1_C5.1_H5.1_[+3CTC]_A5.1_F5.1_T5.1]	36.6 nM
UCUCUUUGUUCCAUUAUUAUCUCUU (ssRNA) [Ie_S1_P5E.1_K5.1_C5.1_H5.1_[+3TCC]_A5.1_F5.1_T5.1]	36.5 nM
UCUCUUUGUCCUAUUAUUAUCUCUU (ssRNA) [Ie_S1_P5E.1_K5.1_C5.1_H5.1_[+3CCT]_A5.1_F5.1_T5.1]	110 nM
UCUCUUUGUAUUCUUAUUAUCUCUU (ssRNA) [Ie_S1_P5E.1_K5.1_C5.1_H5.1_A5.1_[+5TCT]_F5.1_T5.1]	7.13 nM
Ib_S2_P3E.1_K3.1_C3.1_H3.1_[T1G]_A3.1_F3.1_[A8G]_T3.1 (ssRNA) RNA: UUUGAUUAAUAUGAUAUCGUUCUUUCUGGUAUAUGUUCUUUCUCGAUAUCAUAUUAAUCUUU	1140 nM
Ib_S2_P3E.1_K3.1_C3.1_H3.1_[T1A]_A3.1_F3.1_[A8G]_T3.1 (ssRNA) RNA: UUUGAUUAAUAUGAUAUCGUUCUUUCUAGUAUAUGUUCUUUCUCGAUAUCAUAUUAAUCUUU	> 2300 nM
Ib_S2_P3E.1_K3.1_C3.1_H3.1_[G2C]_A3.1_F3.1_[A8C]_T3.1 (ssRNA) RNA: UUUGAUUAAUAUGAUAUCGUUCUUUCUUCUAUAUCUUCUUUCUCGAUAUCAUAUUAAUCUUU	> 2300 nM
Ib_S2_P3E.1_K3.1_C3.1_H3.1_[T1G]_A3.1_F3.1_[A8T]_T3.1 (ssRNA) RNA: UUUGAUUAAUAUGAUAUCGUUCUUUCUGGUAUAUUUUCUUUCUCGAUAUCAUAUUAAUCUUU	955 nM
Ib_S2_P3E.1_K3.1_C3.1_H3.1_[T1C]_A3.1_F3.1_[A8G]_T3.1 (ssRNA) RNA: UUUGAUUAAUAUGAUAUCGUUCUUUCUCGUAUAUGUUCUUUCUCGAUAUCAUAUUAAUCUUU	> 2300 nM
Ia_S2_P3E.1_K3.1_C3.1_H3.1_[T1A]_A3.1_F3.1_T3.1 (ssRNA) RNA: UUUGAUUAAUAUGAUAUCGUUCUUUCUAGUAUAUAUUCUUUCUCGAUAUCAUAUUAAUCUUU	931 nM
UCUCUUUGUCUCUCAUUAUUAUCUCUU (ssRNA) [Ie_S1_P5E.1_K5.1_C5.1_H5.1_[+3CTCTC]_A5.1_F5.1_T5.1]	1410 nM

Source: PMC9352680, “A comprehensive thermodynamic model for RNA binding by the Saccharomyces cerevisiae Pumilio protein PUF4”
